Our source for the Fold diff values is patent US20220332804A1 (CSL INNOVATION, published 2022).

Test in all cases: SPR; KD relative to WT C2;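 further: biacore SPR at 37 °C, anti-C2 mAbs captured on an anti-human IgG chip, alanine or serine C2 surface mutants tested, KD from 1:1 fit compared with wild-type C2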
A general note: Surface plasmon resonance follows binding to a sensor surface in real time, without labels.

One experiment deals with T1, human C2 G677A (human, UniProt P06681 21-752).
T1 sequence: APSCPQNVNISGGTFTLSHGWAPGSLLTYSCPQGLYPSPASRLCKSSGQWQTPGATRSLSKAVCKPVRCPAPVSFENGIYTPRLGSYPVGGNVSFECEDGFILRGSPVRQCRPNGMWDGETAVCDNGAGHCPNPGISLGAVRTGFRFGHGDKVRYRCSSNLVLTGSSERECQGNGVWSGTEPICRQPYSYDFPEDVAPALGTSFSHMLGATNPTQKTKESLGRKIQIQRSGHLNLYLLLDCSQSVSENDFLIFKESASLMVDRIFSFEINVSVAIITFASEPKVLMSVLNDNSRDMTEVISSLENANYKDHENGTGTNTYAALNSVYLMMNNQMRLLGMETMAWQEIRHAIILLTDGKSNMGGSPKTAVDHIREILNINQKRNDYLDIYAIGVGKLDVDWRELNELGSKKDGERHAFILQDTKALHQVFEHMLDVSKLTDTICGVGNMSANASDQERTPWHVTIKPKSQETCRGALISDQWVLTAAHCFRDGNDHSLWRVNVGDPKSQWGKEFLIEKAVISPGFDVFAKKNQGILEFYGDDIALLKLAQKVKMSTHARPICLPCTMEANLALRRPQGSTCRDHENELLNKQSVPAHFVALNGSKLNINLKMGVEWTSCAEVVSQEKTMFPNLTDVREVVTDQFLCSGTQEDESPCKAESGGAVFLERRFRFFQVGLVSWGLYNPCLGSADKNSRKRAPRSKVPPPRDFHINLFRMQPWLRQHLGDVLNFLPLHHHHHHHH

The next experiment deals with T2, human C2 F689A (human, UniProt P06681 21-752).
T2 sequence: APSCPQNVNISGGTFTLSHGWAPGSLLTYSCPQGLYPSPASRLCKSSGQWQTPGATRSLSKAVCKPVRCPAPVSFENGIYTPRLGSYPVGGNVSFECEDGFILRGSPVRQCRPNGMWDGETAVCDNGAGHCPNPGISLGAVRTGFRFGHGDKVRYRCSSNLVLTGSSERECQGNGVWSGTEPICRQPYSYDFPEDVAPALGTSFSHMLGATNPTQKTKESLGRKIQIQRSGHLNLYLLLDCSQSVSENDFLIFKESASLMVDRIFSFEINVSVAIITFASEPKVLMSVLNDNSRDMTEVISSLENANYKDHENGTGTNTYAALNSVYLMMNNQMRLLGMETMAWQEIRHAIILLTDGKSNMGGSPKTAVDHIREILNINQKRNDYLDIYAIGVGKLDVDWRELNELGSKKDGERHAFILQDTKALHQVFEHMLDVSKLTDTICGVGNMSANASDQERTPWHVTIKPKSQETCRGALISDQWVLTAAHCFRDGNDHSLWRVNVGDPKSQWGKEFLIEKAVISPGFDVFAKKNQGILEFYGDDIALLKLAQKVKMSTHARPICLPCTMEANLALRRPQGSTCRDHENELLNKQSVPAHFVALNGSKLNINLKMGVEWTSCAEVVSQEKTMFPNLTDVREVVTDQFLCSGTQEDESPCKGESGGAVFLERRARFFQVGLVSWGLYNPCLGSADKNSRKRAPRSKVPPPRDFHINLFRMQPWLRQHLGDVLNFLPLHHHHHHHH

The target of a further experiment is T3, human C2 K329A (human, UniProt P06681 21-752).
T3 sequence: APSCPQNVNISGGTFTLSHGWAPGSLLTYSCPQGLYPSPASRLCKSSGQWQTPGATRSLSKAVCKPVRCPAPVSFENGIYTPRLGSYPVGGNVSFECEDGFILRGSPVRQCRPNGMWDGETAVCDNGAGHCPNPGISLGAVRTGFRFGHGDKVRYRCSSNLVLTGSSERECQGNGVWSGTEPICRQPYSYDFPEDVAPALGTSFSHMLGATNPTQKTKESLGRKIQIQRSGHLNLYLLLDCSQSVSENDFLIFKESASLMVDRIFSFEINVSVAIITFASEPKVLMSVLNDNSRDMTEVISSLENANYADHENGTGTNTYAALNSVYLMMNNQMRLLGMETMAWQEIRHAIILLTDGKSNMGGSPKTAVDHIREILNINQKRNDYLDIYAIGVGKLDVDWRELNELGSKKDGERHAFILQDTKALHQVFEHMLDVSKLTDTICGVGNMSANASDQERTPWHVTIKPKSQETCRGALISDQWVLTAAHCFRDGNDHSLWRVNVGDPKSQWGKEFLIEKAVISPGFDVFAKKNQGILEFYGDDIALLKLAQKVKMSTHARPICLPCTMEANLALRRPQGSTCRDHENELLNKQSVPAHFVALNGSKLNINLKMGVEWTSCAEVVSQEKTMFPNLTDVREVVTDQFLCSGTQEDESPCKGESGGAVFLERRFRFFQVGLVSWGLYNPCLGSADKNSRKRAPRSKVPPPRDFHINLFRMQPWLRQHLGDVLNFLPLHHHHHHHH

For another experiment, the target named is T4, human C2 N467A (human, UniProt P06681 21-752).
T4 sequence: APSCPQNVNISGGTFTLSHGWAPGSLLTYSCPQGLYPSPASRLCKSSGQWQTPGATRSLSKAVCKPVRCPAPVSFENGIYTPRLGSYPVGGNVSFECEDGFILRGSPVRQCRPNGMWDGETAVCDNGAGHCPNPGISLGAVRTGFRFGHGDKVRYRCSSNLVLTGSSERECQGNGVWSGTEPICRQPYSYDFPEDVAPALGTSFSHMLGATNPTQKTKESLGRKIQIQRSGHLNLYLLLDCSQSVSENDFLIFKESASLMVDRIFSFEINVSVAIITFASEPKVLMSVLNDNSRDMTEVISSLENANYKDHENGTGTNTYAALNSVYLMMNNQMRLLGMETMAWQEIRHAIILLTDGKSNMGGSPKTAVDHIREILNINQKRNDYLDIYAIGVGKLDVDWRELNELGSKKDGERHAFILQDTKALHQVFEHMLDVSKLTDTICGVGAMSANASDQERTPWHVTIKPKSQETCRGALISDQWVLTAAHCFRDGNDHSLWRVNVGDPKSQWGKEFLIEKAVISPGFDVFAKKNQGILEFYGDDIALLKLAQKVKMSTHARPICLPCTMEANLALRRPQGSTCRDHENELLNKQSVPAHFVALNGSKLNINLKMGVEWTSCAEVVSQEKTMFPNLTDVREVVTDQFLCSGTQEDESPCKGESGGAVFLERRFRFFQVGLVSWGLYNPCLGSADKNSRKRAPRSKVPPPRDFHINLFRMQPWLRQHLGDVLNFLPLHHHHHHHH

Experimental for human C2 F689A: (§1) Surface plasmon resonance (SPR, Biacore) was used for all binding affinity analyses. In brief, goat anti-human IgG was directly immobilised onto the carboxymethyl dextran surface of CM5 sensorchips to approximately 12,000 RU using standard NHS/EDC chemistry at pH 5. The immobilised antibody surface was pre-conditioned with ten injections of polyclonal human IgG (Privigen 60 s) prepared at 1 μg/mL. Ligands (anti-C2 mAbs) were captured at the beginning of each cycle as described below. An adjacent spot or flow cell in which only Polyclonal IgG was capture was used as a reference surface. The goat anti-human IgG Fc antibody surface was regenerate in 100 mM H3PO4, injected for 45 seconds at the end of each cycle. Experiments were performed at 37° C. and the flow rate of each experiment was kept constant at 30 μL/min.
(§2) Sensogram data was double-referenced against a reference anti-IgG surface (i.e. minus anti-C2 mAb) and blank buffer injections obtained within each experiment. The binding data was fit to 1:1 (kinetic or steady-state) model using local Rmax and null refraction index (RI=0) when appropriate. Buffers and solutions were filtered (0.22 μm) prior to use.
(§3) The C2 mutants were designed to test the importance of surface exposed residues for antibody binding. Residues located at either the N-terminal VWA domain or C-terminal protease domain of C were replaced by either alanine or serine and tested for binding against anti-C2 antibodies.
Experimental for human C2 G677A: as §1, §2, §3
Experimental for human C2 K329A: as §1, §2, §3
Experimental for human C2 N467A: as §1, §2, §3

B1: RF16-214 (antibody, V domains shown)
VH: EVQLLESGGGLVQPGGSLRLSCAASGFTFSWYQMMWVRQAPGKGLEWVSRIYPSGGGTAYADSVKGRFTISRDNSKNTLYLQMNSLRAEDTAVYYCARDAGYGDNWGQGTLVTVSS
VL: QSALTQPPSVSVSPGQTASITCSGDKLGEKYASWYQQKAGQSPVMVIYQDRKRPSGIPERFSGSNSGNTATLTISGTQAMDEADYYCQAWDTRAVVFGGGTKLTVLG
As for B1, the Fold diff with human C2 G677A came to 1 fold; with human C2 F689A, 1 fold; with human C2 K329A, 2 fold; with human C2 N467A it was 2 fold.
